Target: the molecule itself
Assay: cryo-EM structure; human MCU-EMRE-MICU1-MICU2 supercomplex co-expressed in HEK 293F, pulled down by C-terminally Strep-tagged EMRE; Titan Krios, K2; overall map 3.3–3.7 Å

B1: MCU (mitochondrial calcium uniporter), subunit of the human MCU-EMRE-MICU1-MICU2 supercomplex (MEMMS) (natural protein)
chain: DDVTVVYQNGLPVISVRLPSRRERCQFTLKPISDSVGVFLRQLQEEDRGIDRVAIYSPDGVRVAASTGIDLLLLDDFKLVINDLTYHVRPPKRDLLSHENAATLNDVKTLVQQLYTTLCIEQHQLNKERELIERLEDLKEQLAPLEKVRIEISRKAEKRTTLVLWGGLAYMATQFGILARLTWWEYSWDIMEPVTYFITYGSAMAMYAYFVMTRQEYVYPEARDRQYLLFFHKGAKKSRFDLEKYNQLKDAIAQAEMDLKRLRDPLQVHLPLRQIG
notes: MCU, human; pore-forming subunit with NTD, CCD and TMD; Four MCU subunits form one channel (tetramer); the supercomplex holds two such tetramers joined at the NTDs; Construct limits and any tags are in the supplementary Methods; source: HEK 293F cells transfected by BacMam viruses, co-expressed; complex pulled down by the C-terminally Strep-tagged EMRE
stoichiometry N: 4

Reference: paper PMC7895871 (Protein & Cell, 2020)
